Molecular target: Keap1 Kelch domain (recombinant) (human, UniProt Q14145 321-609)
Test: ITC

Keap1 Kelch domain (recombinant), sequence (Q14145 321-609): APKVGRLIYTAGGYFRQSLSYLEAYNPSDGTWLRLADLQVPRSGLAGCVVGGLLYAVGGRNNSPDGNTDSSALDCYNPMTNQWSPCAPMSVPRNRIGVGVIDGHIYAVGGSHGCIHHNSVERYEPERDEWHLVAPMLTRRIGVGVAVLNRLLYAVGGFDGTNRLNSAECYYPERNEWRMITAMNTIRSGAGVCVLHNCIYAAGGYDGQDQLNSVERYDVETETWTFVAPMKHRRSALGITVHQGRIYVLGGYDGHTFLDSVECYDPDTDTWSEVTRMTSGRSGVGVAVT

B1: Marburg virus VP24 (recombinant, used for ITC) (natural protein)
chain: MAELSTRYNLPANVTENSINLDLNSTARWIKEPSVGGWTVKWGNFVFHIPNTGMTLLHHLKSNFVVPEWQQTRNLFSHLFKNPKSTIIEPFLALRILLGVALKDQELQQSLIPGFRSIVHMLSEWLLLEVTSAIHISPNLLGIYLTSDMFKILMAGVKNFFNKMFTLHVVNDHGKPSSIEIKLTGQQIIITRVNMGFLVEVRRIDIEPCCGETVLSESVVFGLVAEAVLREHSQMEKGQPLNLTQYMNSKIAI
Kd: 158 ± 20 nM

Source: PMC3985291 (Cell reports, 2014)
